According to the supplement of paper PMC7877785:
± gives the uncertainty stated by the source.

Experiment: self-splicing fitness, log relative to wild type (ln ratio); higher = more splicing; Tetrahymena group I intron in knt gene, E. coli kanamycin selection, DiMSum; sequences stand for … in CUCUCU…GGAGGGAAAAGUUAUCAGGCAUGCACCUGGUAGCUAGUCUUUAAACCAAUAGAUUGCAUCGGUUUAAAAGGCAAGACCGUCAAAUUGCGGGAAAGGGGUCAACAGCCGUUCAGUACCAAGUCUCAGGGGAAACUUUGAGAUGGCCUUGCAAAGGGUAUGGUAAUAAGCUGACGGACAUGGUCCUAACCACGCAGCCAAGUCCUAAGUCAACAGAUCUUCUGUUGAUAUGGAUGCAGUUCACAGACUAAAUGUCGGUCGGGGAAGAUGUAUUCUUCUCAUAAGAUAUAGUCGGACCUCUCCUUAAUGGGAGCUAGCGGAUGAAGUGAUGCAACACUGGAGCCGCUGGGAACUAAUUUGUAUGCGAAAGUAUAUUGAUUAGUUUUGGAGUACUCGUGGUCG
Procedure, shortened: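 Pooled colonies went to amplicon sequencing on an Illumina HiSeq 2500 after six replicate transformations. The plates were LB agar with 100 μg/mL carbenicillin, 50 μM IPTG and 0.2% rhamnose, with or without 25 μg/mL kanamycin, incubated overnight at 37°C or 30°C. The E. coli BL21(DE3) library had all eight P1ex-region intron nucleotides randomised, the intron placed in the knt kanamycin-resistance gene on pET-22b(+). DiMSum fitness is the error-weighted combination of replicate fold changes, kanamycin against none, normalised to wild type.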

| Sequence | self-splicing fitness (ln) (30 °C) | self-splicing fitness (ln) (37 °C) |
| --- | --- | --- |
| UUGCAGCAAUAUUACGGGGA | -1.37 ± 0.13 | -0.636 ± 0.12 |
| UUGCAGCAAUAUUACGGGGC | -3.99 ± 0.2 | -2.35 ± 0.2 |
| UUGCAGCAAUAUUACGGUAG | -0.823 ± 0.057 | -0.064 ± 0.07 |
| UUGCAGCAAUAUUACGUAAA | -1.25 ± 0.095 | -0.427 ± 0.12 |
| UUGCAGCAAUAUUACGUACA | 0.118 ± 0.11 | -0.0402 ± 0.13 |
| UUGCAGCAAUAUUACGUACU | -1.36 ± 0.12 | -0.848 ± 0.12 |
| UUGCAGCAAUAUUACGUAGC | -2.96 ± 0.3 | – |
| UUGCAGCAAUAUUACGUCUC | -1.21 ± 0.12 | -0.311 ± 0.16 |
| UUGCAGCAAUAUUACGUGAU | -3.85 ± 0.2 | -2.06 ± 0.17 |
| UUGCAGCAAUAUUACGUGGA | -2.52 ± 0.18 | -1.27 ± 0.13 |
| UUGCAGCAAUAUUACGUUCC | – | -2.16 ± 0.27 |
| UUGCAGCAAUAUUACGUUUU | -3.97 ± 0.22 | -1.85 ± 0.13 |
| UUGGAGCAAUAUUACGAACG | – | -0.295 ± 0.28 |
| UUGGAGCAAUAUUACGACAU | -1.81 ± 0.02 | -1.04 ± 0.036 |
| UUGGAGCAAUAUUACGAUGG | -1.53 ± 0.21 | -1.54 ± 0.21 |
| UUGGAGCAAUAUUACGCAGG | -2.96 ± 0.28 | -1.99 ± 0.33 |
| UUGGAGCAAUAUUACGCGUG | -3.03 ± 0.18 | -0.323 ± 0.087 |
| UUGGAGCAAUAUUACGGAUG | -3.54 ± 0.34 | -2.12 ± 0.4 |
| UUGGAGCAAUAUUACGGCGA | -1.32 ± 0.48 | – |
| UUGGAGCAAUAUUACGGUAG | -3.58 ± 0.2 | -1.99 ± 0.18 |
| UUGGAGCAAUAUUACGUCGA | -2.6 ± 0.3 | 0.049 ± 0.27 |
| UUGGAGCAAUAUUACGUGGU | -2.84 ± 0.36 | -2.56 ± 0.32 |
| UUGGAGCAAUAUUACGUGUA | -3.69 ± 0.29 | – |
| UUGGAGCAAUAUUACGUUAU | -2.79 ± 0.28 | -0.885 ± 0.26 |
| UUGUAGCAAUAUUACGACAG | -0.234 ± 0.21 | -0.137 ± 0.25 |
| UUGUAGCAAUAUUACGAUAA | -1.44 ± 0.11 | -0.33 ± 0.17 |

| Sequence | self-splicing fitness (ln) (30 °C) | self-splicing fitness (ln) (37 °C) |
| --- | --- | --- |
| UUGUAGCAAUAUUACGAUGA | -0.47 ± 0.13 | 0.0216 ± 0.12 |
| UUGUAGCAAUAUUACGAUGU | -3.86 ± 0.29 | -0.334 ± 0.12 |
| UUGUAGCAAUAUUACGAUUC | -3.76 ± 0.34 | -3.2 ± 0.3 |
| UUGUAGCAAUAUUACGCGUC | -3.51 ± 0.42 | -0.917 ± 0.26 |
| UUGUAGCAAUAUUACGCUCA | -1.27 ± 0.14 | 0.0359 ± 0.18 |
| UUGUAGCAAUAUUACGCUCC | -2.12 ± 0.43 | – |
| UUGUAGCAAUAUUACGGAAG | -3.94 ± 0.33 | -1.7 ± 0.36 |
| UUGUAGCAAUAUUACGGAUA | -2.68 ± 0.24 | -1.42 ± 0.23 |
| UUGUAGCAAUAUUACGGGGG | -2.82 ± 0.41 | – |
| UUGUAGCAAUAUUACGGUAA | -1.2 ± 0.16 | -0.727 ± 0.13 |
| UUGUAGCAAUAUUACGGUAU | -0.659 ± 0.35 | – |
| UUGUAGCAAUAUUACGGUGG | -1.75 ± 0.12 | -1.28 ± 0.17 |
| UUGUAGCAAUAUUACGUAAC | – | -2.12 ± 0.43 |
| UUGUAGCAAUAUUACGUCGA | -0.938 ± 0.088 | -0.226 ± 0.11 |
| UUGUAGCAAUAUUACGUGGG | -4.04 ± 0.46 | -2.06 ± 0.24 |
| UUGUAGCAAUAUUACGUUCG | -0.926 ± 0.14 | -0.622 ± 0.16 |
| UUUAAGCAAUAUUACGAAGA | -2.77 ± 0.27 | -1.33 ± 0.21 |
| UUUAAGCAAUAUUACGACAA | -0.409 ± 0.098 | -0.304 ± 0.12 |
| UUUAAGCAAUAUUACGACCA | -0.979 ± 0.27 | -0.376 ± 0.24 |
| UUUAAGCAAUAUUACGACCG | -0.889 ± 0.18 | 0.563 ± 0.26 |
| UUUAAGCAAUAUUACGAGAG | -1.49 ± 0.11 | -1.13 ± 0.12 |
| UUUAAGCAAUAUUACGAUUG | -1.36 ± 0.15 | -1.12 ± 0.16 |
| UUUAAGCAAUAUUACGCGAA | -1.43 ± 0.12 | -0.145 ± 0.15 |
| UUUAAGCAAUAUUACGCGAG | -0.722 ± 0.11 | 0.0933 ± 0.13 |
| UUUAAGCAAUAUUACGCGUU | -2.79 ± 0.19 | -2.51 ± 0.23 |
